Measured values from PMC6751697.

Biological target: fluorescein-labeled 16-mer Pogo Ligase peptide (FAM-PL)
Experiment: fluorescence polarisation

Sequence of recombinant (His)6-PCNA protein (proliferating cell nuclear antigen) (P12004 whole entry): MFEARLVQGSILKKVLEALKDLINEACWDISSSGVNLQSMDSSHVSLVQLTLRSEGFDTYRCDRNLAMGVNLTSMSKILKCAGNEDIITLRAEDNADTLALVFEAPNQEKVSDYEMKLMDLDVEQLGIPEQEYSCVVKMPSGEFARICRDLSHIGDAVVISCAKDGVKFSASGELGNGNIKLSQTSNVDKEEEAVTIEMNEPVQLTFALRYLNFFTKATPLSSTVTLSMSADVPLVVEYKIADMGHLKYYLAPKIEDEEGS

Substance: recombinant (His)6-PCNA protein (proliferating cell nuclear antigen) (from UniProt P12004 1-261) (natural protein)
- percent of peptide bound (5 nM FAM-PL, 1 uM PCNA): > 80%
